Laboratory results taken from the DeepSol protein solubility set.

experiment: soluble on expression in E. coli; label from the status in PepcDB or PDB records

Sequence | soluble on expression in E. coli
MGSDKIHHHHHHMRKMAVQKLPEKDFFAPLKAWKFLVRKPVTIEVPNKIRREASERYRGFHVNDWGKCIGCGTCAKICPTDAITMVEVPDLTQEDGKLPQRPVIDYGRCSFCALCVDICTTGSLKMTREYIHISEDPEDFIFMPTDKGLNAKKGLYEFGKAPLGWVRDENSELLDLERIEMPVEPPEVRIKSFIEIVKGYSREQAMQEAARCVECGVCTYTCPEHMDIPQYIKSVYEDNLEEGLRWLYRTNPLSMVCGRVCTHRCETACSVGVRGEPVAIQWLKRYIVDSIPLERYGEILDIKPERKGKSVGIIGSGPAGLAAAYFLATMGYDVTIYESESKPGGVMRYGIPKYRLPDEALDKDIAFIEALGVKILLNTRVVQDVSFEDVRKRHDVVFLATGFGLGRSTGVPGTDHPDVKQALPLLKMIRDYLRGDGPKPPVPERLVVIGGGNVAMDISRSMARLQFMEYGRVNVQVLSLEGCFEDMPADMEEIEEALEEGIVINPGWGPMEVVIENDRIKGVKFKKCVSVFDGEGRFNPQFDEKEQIFVEADMVVEAIGQAPDYSYLPEEIRSKLEFFRGRIKTNEYNQTSVEWLFAGGDIVHGPDIIHGIADGYAAAKGIDMYLRKEK | not soluble
MGSDKIHHHHHHMRLLDLYLTLRLALSTAVHTLAGRVKGRSYVPHPRTMLFIEPTSHCNLECSFCTYRLDRHPRLTLDMERFEDYVAQARAMGFADMVLTPINGDVFMDRTILDKLRLLDRLKDGPGIILYTNLIGASAEQLGEILALARLKMFQVSIYGHDFETFRRITGRGQVQFRRLLANLETIADLVAQGVVPQALSICVRTERHYRLEDEASGELHVLLRRLISLGIPVSVQSCLDDWGGLVAETDLDGLDMPLIRGRLIPKNGACIEPFYNVQILADGRVNACACRSVGEDLIIGDLRQDDLKTILSARNPAYTGLIERQQKGDFPQTCRGCSFYRSIYDRRIRNASPLGHMSLEQFHTFLSRE | not soluble
MDYKFPKDFMFGTSTASYQIEGGWNEDGKGENIWDRLVHTSPEVIKDGTNGDIACDSYHKYKEDVAIIKDLNLKFYRFSISWARIAPSGVMNSLEPKGIAYYNNLINELIKNDIIPLVTMYHWDLPQYLQDLGGWVNPIMSDYFKEYARVLFTYFGDRVKWWITFNEPIAVCKGYSIKAYAPNLNLKTTGHYLAGHTQLIAHGKAYRLYEEMFKPTQNGKISISISGVFFMPKNAESDDDIETAERANQFERGWFGHPVYKGDYPPIMKKWVDQKSKEEGLPWSKLPKFTKDEIKLLKGTADFYALNHYSSRLVTFGSDPNPNFNPDASYVTSVDEAWLKPNETPYIIPVPEGLRKLLIWLKNEYGNPQLLITENGYGDDGQLDDFEKISYLKNYLNATLQAMYEDKCNVIGYTVWSLLDNFEWFYGYSIHFGLVKIDFNDPQRTRTKRESYTYFKNVVSTGKP | soluble
MAHHHHHHMRRCFKLQAPPGVLSILSDLAQPRTSTSYQELLRNSHLPAQPLPFLPPPRWAAELSRVLHRTFPDVVQHHHTRFLQVFVHPSFTTAAGVSGTMQPLVAVGESLLERIGGLWILATFESTRREEYASLLALLTSDTALCRVLRDHWRLEHMVLTDASADLFSRQRLSSTKGLVCWLSSHGNVNGAQSLPEPFGAGCVKAMVAAVLLEHGNDAAEHFVKSEVLPYVL | not soluble
SEHWQAGRFIGQQTSARPSSKPLLAVQIDDLLTLASRFVGEERARQSFIRFAYRQGKGFNPNQNADGDWIEHTERLLAGVLGTSSTRAVVKAAIEGRDMQLEDVVRIADEASEVLQFNRALLQGAIENINQGISVVDQNL | not soluble
MSDIAPAAHSPYIPPTPEVGLPLWLLAELTYRCPLQCPYCSNPLDFARQGQELTTEQWFKVMQEAREMGAAQIGFSGGEPLVRQDLAELIAEARRLGFYTNLITSGIGLTEEKIIAFKKAGLDHIQISFQASDEQVNNMLAGSKKAFAQKLEMAKAVKKHGYPMVLNFVTHRHNIDRIDKIIELCLALEADFVELATCQFYGWAHLNRVGLLPTKDQLVRAEAVTNEYRDQLAAQDHPCKLIFVTPDYYEERPKACMNGWGNIFLTVTPDGTALPCHGARQMPIQFPNVREHSMQHIWYDSFGFNRFRGYDWMPEPCRSCDEKEKDFGGCRCQAFMLTGDAANADPVCSKSYHHGIITQARDESETATQTIEELAFRNDRNSRLIAKSS | not soluble
MMSTLALVSLAIFGIAVVCAAPKPATVPVANEEDYLAALYGFEAPGSQFKGAPLQSKRHISPSYDVEIDAGNMRNLLDIGKRSAPMASDYGNQFQMYNRLIDAGKKKRSPAISPAYQFENAFGLSEALERAGRR | not soluble
MNKEEQYLLFALSAPMEILNQSCKPAHDSPKMYTGIKEFDLSSSWGINNRDDLIQTIYQMTDDGHANDLAGLYLTWQRSSPEEWKALIAGGSERGLIYTQFVAQTAMCCGEGGIKAWDYVRMGFLSRAGVLNNWLTEEESLWLQSRVYARAHHYYHSWMHYFSAYSLGRLYWQSSQCEDNASLREALTLYKYDSAGSRMFEELAAGSDRFYATLPWQPLTVQPECPVTLKDVSDL | not soluble
VSRAESNRTYSGQPVAERRVARRARFLDSALSVFAEKTYAHSSISDICAHAGLSRRQFYEEFGSREDILLALYDTIQDEARDAVLAANDRAPSRDPRTVAGTVMTAYIESVGTDERRARIIFVEVVGAGPRVEQYRLERRTQWAQLFETVTRTIDGGIVDPPERFEMVSIAFIGAVNDLAHHWSTASPRPSPSVLVDVLSTMLIALVTDQT | not soluble
MEFYSQSRFSNWVNKIAETELDEDNPETFAVFDQMLEDVIIACLSIIRAVKEREIRKADAVKEVEKILGLIPNHDFGDELKNELFQFTLESIKAVLLSFRLYFEGKISKKSFEALLKDALKKEQSGDYEGSLNAVAQMGAKVIKGEQLPELDIPEDSAVISWIDGIDAISSVLELSKIDAPTE | not soluble
MGSDKIHHHHHHAQNFSDYFTNKTLRIDYLFTGNADKQSICLDELSELPVWAGRRHHLSELPLEGNGQIVMRDVASGKVIYTTSFSSLFQEWLETDEAKEVTKGFENTYLLPYPIKPAEVEITLRNNKREVSANLKHVVKPDDILIHKKGLTHITPHKYLLKSGNEEQCIDVAILAEGYTTSEMETFYKDAAIACEALFSHEPFQSMKNRFNIVAVASPSADSGVSAPKQGAWKHTAFGSHFDTFYSDRYLTTSRVKAINDALAGIPYEHIIILANTEQYGGGGIYNAFTLTTAHHPNFRPVVVHEFGHSFGGLADEYFYDEDVMNGLYPLNIEPWEQNITTRINFASKWEDMLTKTTPVPTPVADKAKYPIGVYEGGGYSAKGIYRPAFDCRMRTNEYPTFCPVCQRAIQRIIEFYTGK | not soluble
MSNDIEKSIQQWLEKKLEERGHGAQIELAAYLGIHPSTISRMLNPYKNGKSRSISIGELVKIAEFFKVSPPQISSLMLIKNS | not soluble
MGESSGGGNSRQLQFSRKAGKGVVKTIHEYRSKPLRVGRKGEWRPAISDENRKLIRGVAEIIKIRPINVPDYAVVNPLGIMRQAYGTMVGGIANEPWSLESRKTIEEVVFLPIMDGEVRKGQLEHHHHHH | not soluble
MNYEIVCGIETHIELATKTKIFCGCTTEFGGEPNTHCCPVCTGQPGSLPILNQKVVEYAIKAGLALNCKINTKSHMDRKNYVYPDLPKAYQISQYDEPLCEKGYIELDSGKRIGITRIHIEEDAGKLVHENGYTYIDYNRSGVPLIEIVSEPDISSAEEAREYAEKLQLIMRYIGISDCKMQEGSMRCDVNLSLRKPGDSRFGVRTEIKNINSLSFIQKAVMAEAERQADILDAGGTVVQQTMRYDEATNSVSPMRDKENSDDYRYFPDPDILRFSINDEKVEEIRASLPELPFDKLKRYVNVLGLPEATARQIFRYRKVAEFFEGALAEGASVKNAANLIVGTIFSNMDTEEEKELFDIRISSAQFAALVKLADEKKINIGVAQSTLQKMLESGKPVEEFIKPEDLAGISDEELESLCKEAIDANPKAVADVRSGKDKAINVMFGYIMKKTGGKADIRKVEVLLRKLIGQ | soluble
SNAKIGVLQFVSHPSLDLIYKGIQDGLAEEGYKDDQVKIDFMNSEGDQSKVATMSKQLVANGNDLVVGIATPAAQGLASATKDLPVIMAAITDPIGANLVKDLKKPGGNVTGVSDHNPAQQQVELIKALTPNVKTIGALYSSSEDNSKTQVEEFKAYAEKAGLTVETFAVPSTNEIASTVTVMTSKVDAIWVPIDNTIASGFPTVVSSNQSSKKPIYPSATAMVEVGGLASVVIDQHDLGVATGKMIVQVLKGAKPADTPVNVFSTGKSVINKKIAQELGITIPESVLKEAGQVI | soluble
